Measured values as given in patent publication US20150259426A1 (Novartis, published 2015).

T1: hGITR (human, UniProt Q9Y5U5)
T1 construct: extracellular domain, E. coli lysate captured on a His capture plate; Target named only on the sheet; the construct is not described in the text
T1 sequence (extracellular domain, looked up): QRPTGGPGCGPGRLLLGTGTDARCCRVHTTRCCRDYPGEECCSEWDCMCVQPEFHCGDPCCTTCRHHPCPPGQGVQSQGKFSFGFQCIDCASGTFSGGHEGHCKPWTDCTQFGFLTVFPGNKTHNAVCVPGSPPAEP

T2: TNFR1 extracellular domain (TNFRSF1A, Leu34-Thr211) (UniProt P19438 34-211)
T2 construct: range 34-211; ECD cloned into pBadThioTopo; E. coli lysate on His capture plates
T2 sequence (looked up): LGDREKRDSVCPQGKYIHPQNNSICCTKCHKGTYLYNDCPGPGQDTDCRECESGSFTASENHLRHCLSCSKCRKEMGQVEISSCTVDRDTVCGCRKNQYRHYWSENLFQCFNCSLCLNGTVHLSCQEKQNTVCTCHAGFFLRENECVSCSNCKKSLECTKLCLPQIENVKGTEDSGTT

T3: OX40 extracellular domain (TNFRSF4, Gly33-Gly212) (UniProt P43489 33-212)
T3 construct: ECD cloned into pBadThioTopo; E. coli lysate on His capture plates
T3 sequence (looked up): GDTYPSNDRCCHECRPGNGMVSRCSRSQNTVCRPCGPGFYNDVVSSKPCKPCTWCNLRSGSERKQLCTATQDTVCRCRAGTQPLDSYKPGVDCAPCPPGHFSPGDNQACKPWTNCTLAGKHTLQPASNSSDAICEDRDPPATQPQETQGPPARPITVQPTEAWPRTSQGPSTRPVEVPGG

T4: FAS extracellular domain (TNFRSF6, Ser20-Gly175) (UniProt P25445 20-175)
T4 construct: ECD cloned into pBadThioTopo; E. coli lysate on His capture plates
T4 sequence (looked up): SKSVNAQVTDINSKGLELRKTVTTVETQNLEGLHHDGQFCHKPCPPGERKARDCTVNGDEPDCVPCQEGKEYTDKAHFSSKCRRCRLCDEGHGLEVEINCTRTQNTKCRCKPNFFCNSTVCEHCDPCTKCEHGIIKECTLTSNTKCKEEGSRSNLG

T5: DcR3 (TNFRSF6B, Val27-Ala176) (UniProt O95407 27-176)
T5 construct: range 27-176; ECD cloned into pBadThioTopo; E. coli lysate on His capture plates
T5 sequence (looked up): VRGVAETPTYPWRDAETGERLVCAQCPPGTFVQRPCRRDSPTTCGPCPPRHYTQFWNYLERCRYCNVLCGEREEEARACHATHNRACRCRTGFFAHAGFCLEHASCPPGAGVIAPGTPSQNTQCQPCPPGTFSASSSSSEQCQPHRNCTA

T6: DcR2 extracellular domain (TNFRSF10D, Thr57-Thr198) (UniProt Q9UBN6 57-198)
T6 construct: range 57-198; ECD cloned into pBadThioTopo; E. coli lysate on His capture plates
T6 sequence (looked up): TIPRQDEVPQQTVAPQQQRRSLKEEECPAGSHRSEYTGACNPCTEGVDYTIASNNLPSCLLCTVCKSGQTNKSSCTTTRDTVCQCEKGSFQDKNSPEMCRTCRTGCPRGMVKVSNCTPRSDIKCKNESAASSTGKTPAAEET

T7: OPG (TNFRSF11B, Lys17-Ile197) (UniProt O00300 17-197)
T7 construct: range 17-197; ECD cloned into pBadThioTopo; E. coli lysate on His capture plates
T7 sequence (looked up): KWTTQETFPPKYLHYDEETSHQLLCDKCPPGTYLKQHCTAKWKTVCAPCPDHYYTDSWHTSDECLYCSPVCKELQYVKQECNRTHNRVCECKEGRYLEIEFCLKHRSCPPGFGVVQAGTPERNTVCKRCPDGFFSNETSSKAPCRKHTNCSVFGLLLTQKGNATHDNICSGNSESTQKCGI

B1: 10F1 tri (trivalent anti-DR5 NB construct) (VHH, not shown: small tags and cut ends)
chain: EVQLVESGGGLVQPGGSLRLSCAASGFTFSRYWMYWVRQAPGKGLEWVSAINSGGGDTYYRDSVRGRFTISRDNFKNTLYLQMNSLKSEDTAVYYCAKAEGPPTFSLIRTMTVDPGAQGTQVTVSSGGGGSGGGGSGGGGSGGGGSGGGGSGGGGSGGGGSEVQLVESGGGLVQPGGSLRLSCAASGFTFSRYWMYWVRQAPGKGLEWVSAINSGGGDTYYRDSVRGRFTISRDNFKNTLYLQMNSLKSEDTAVYYCAKAEGPPTFSLIRTMTVDPGAQGTQVTVSSGGGGSGGGGSGGGGSGGGGSGGGGSGGGGSGGGGSEVQLVESGGGLVQPGGSLRLSCAASGFTFSRYWMYWVRQAPGKGLEWVSAINSGGGDTYYRDSVRGRFTISRDNFKNTLYLQMNSLKSEDTAVYYCAKAEGPPTFSLIRTMTVDPGAQGTQVTVSS
B2: 4E6 tri (trivalent anti-DR5 NB construct) (VHH)
chain: EVQLVESGGGSVQAGDSLRLSCAASGRTFGSIRVGWFRQTPGKEREFVAAINRNDGTTYYADSVKGRFTISRDNAKNTVYMQMASLKPEDTAVYYCAAGLQYNRSADRVPVGAVYWGQGTQVTVSSGGGGSGGGGSGGGGSGGGGSGGGGSGGGGSGGGGSEVQLVESGGGSVQAGDSLRLSCAASGRTFGSIRVGWFRQTPGKEREFVAAINRNDGTTYYADSVKGRFTISRDNAKNTVYMQMASLKPEDTAVYYCAAGLQYNRSADRVPVGAVYWGQGTQVTVSSGGGGSGGGGSGGGGSGGGGSGGGGSGGGGSGGGGSEVQLVESGGGSVQAGDSLRLSCAASGRTFGSIRVGWFRQTPGKEREFVAAINRNDGTTYYADSVKGRFTISRDNAKNTVYMQMASLKPEDTAVYYCAAGLQYNRSADRVPVGAVYWGQGTQVTVSS
notes: three VHH units in one chain joined by GlySer linkers; not shown: CMYC-HIS6 tag

How the values were obtained:
[1] = target: T8, cell-bound human DR5 (Colo205 and other human cell lines) (human, UniProt O14763 56-440); experiment: cell-based or functional assay
[2] = target: T8, cell-bound human DR5 (Colo205 and other …); experiment: cell-based or functional assay; remark: listed apart in the source
[3] = target: T1, hGITR; experiment: ELISA, receptor ECD from E. coli lysate on His capture plate;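 note: binding specificity screen across TNF receptor superfamily ectodomains, anti-V5 detection as expression reference, primary antibody incubation 1 h at room temperature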
[4] = target: T2, TNFR1 extracellular domain (TNFRSF1A, …); experiment: as above
[5] = target: T9, TNFR3 extracellular domain (TNFRSF3, Pro30-Thr224) (UniProt P36941 30-224); experiment: as above
T9 construct: range 30-224; ECD cloned into pBadThioTopo; E. coli lysate on His capture plates

[6] = target: T3, OX40 extracellular domain (TNFRSF4, …); experiment: as above
[7] = target: T10, CD40 extracellular domain (TNFRSF5, Val18-Leu192) (UniProt P25942 18-192); experiment: as above
T10 construct: range 18-192; ECD cloned into pBadThioTopo; E. coli lysate on His capture plates

[8] = target: T4, FAS extracellular domain (TNFRSF6, …); experiment: as above
[9] = target: T5, DcR3 (TNFRSF6B, Val27-Ala176); experiment: as above
[10] = target: T11, CD27 extracellular domain (TNFRSF7, Thr21-Ser187) (UniProt P26842 21-187); experiment: as above
T11 construct: range 21-187; ECD cloned into pBadThioTopo; E. coli lysate on His capture plates

[11] = target: T12, CD137 extracellular domain (TNFRSF9, Glu19-Ile188) (UniProt Q07011 19-188); experiment: as above
T12 construct: range 19-188; ECD cloned into pBadThioTopo; E. coli lysate on His capture plates

[12] = target: T6, DcR2 extracellular domain (TNFRSF10D, …); experiment: as above
[13] = target: T7, OPG (TNFRSF11B, Lys17-Ile197); experiment: as above
[14] = target: T13, BAFFR extracellular domain (TNFRSF13C, Met1-Gly64) (UniProt Q96RJ3 1-64); experiment: as above
T13 construct: range 1-64; ECD cloned into pBadThioTopo; E. coli lysate on His capture plates

[15] = target: cynomolgus DR5-Fc fusion protein (cyno DR5 amino acids 56 to 213 fused with human IgG1 Fc) (cynomolgus; human); experiment: SPR (Biacore), CM5 chip coated with cynomolgus DR5-Fc, 1 to 100 nM NB construct

T13 sequence (Q96RJ3 1-64 limits assumed): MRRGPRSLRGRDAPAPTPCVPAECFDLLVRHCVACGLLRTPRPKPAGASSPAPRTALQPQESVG
T10 sequence (P25942 18-192 limits assumed): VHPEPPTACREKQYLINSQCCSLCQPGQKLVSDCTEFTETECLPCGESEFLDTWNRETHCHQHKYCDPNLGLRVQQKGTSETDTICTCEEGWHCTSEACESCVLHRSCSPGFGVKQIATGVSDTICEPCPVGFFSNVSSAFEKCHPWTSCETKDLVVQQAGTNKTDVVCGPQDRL
T11 sequence (P26842 21-187 limits assumed): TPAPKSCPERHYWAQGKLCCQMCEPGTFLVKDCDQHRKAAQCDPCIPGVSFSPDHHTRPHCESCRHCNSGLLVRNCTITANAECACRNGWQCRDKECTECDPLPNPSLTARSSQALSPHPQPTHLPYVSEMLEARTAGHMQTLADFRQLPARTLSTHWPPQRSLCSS
T12 sequence (Q07011 19-188 limits assumed): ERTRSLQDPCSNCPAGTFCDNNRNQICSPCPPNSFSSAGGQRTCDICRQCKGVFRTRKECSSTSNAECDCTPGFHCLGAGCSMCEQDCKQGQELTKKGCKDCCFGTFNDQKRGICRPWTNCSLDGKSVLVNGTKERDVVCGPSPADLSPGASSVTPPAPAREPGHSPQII
T9 sequence (P36941 30-224 limits assumed): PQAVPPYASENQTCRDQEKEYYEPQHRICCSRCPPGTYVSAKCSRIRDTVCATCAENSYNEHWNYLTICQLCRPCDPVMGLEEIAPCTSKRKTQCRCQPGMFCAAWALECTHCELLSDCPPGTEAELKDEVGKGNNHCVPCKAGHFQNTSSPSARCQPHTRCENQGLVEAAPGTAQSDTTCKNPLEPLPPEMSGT

| Binder | IC50, cell survival, Colo205 [1] [nM] | IC50, cell survival, A549 [2] [nM] | IC50, cell survival, ARPE-19 [2] [nM] | IC50, cell survival, H226 [2] [nM] | IC50, cell survival, H2052 [2] [nM] | IC50, cell survival, H2122 [2] [nM] | IC50, cell survival, Huvec [2] [nM] | IC50, cell survival, IMR-90 [2] [nM] | IC50, cell survival, Jurkat [2] [nM] | IC50, cell survival, M30 [2] [nM] | IC50, cell survival, MiaPaCa-2 [2] [nM] | IC50, cell survival, Molt4 [2] [nM] | IC50, cell survival, Panc-1 [2] [nM] | binding result [3] | binding result [4] | binding result [5] | binding result [6] | binding result [7] | binding result [8] | binding result [9] | other results |
| --- | --- | --- | --- | --- | --- | --- | --- | --- | --- | --- | --- | --- | --- | --- | --- | --- | --- | --- | --- | --- | --- |
| B1 | 0.0407 | ≥ 20 | ≥ 20 | 0.02 | 0.013 | 0.003 | ≥ 20 | ≥ 20 | ≥ 20 | ≥ 20 | ≥ 20 | ≥ 20 | ≥ 20 | no binding (tested: not stated) | no binding (tested: not stated) | no binding (tested: not stated) | no binding (tested: not stated) | no binding (tested: not stated) | no binding (tested: not stated) | no binding (tested: not stated) | binding result [10]: no binding (tested: not stated); binding result [11]: no binding (tested: not stated); binding result [12]: no binding (tested: not stated); binding result [13]: no binding (tested: not stated); binding result [14]: no binding (tested: not stated); Kd [15]: < 0.6 nM |
| B2 | 0.0379 | ≥ 20 | ≥ 20 | 0.02 | 0.006 | 0.002 | ≥ 20 | ≥ 20 | ≥ 20 | ≥ 20 | 0.023 | ≥ 20 | ≥ 20 | no binding (tested: not stated) | no binding (tested: not stated) | no binding (tested: not stated) | no binding (tested: not stated) | no binding (tested: not stated) | no binding (tested: not stated) | no binding (tested: not stated) | binding result [10]: no binding (tested: not stated); binding result [11]: no binding (tested: not stated); binding result [12]: no binding (tested: not stated); binding result [13]: no binding (tested: not stated); binding result [14]: no binding (tested: not stated); Kd [15]: < 0.09 nM |
